Data as given in paper PMC7271347.
Read-outs that look alike come from different tables or passages of the source.

Tests used:
Assay in all cases: SEC-MALS
[1] = molecular target: λ Ea22(102–182) (bacteriophage λ)
[2] = molecular target: φP27 Ea22(1–315) (bacteriophage φP27)
[3] = molecular target: λ Ea22(93–182) (bacteriophage λ)
[4] = molecular target: φ24B Ea22(135–261) (bacteriophage φ24B)
[5] = molecular target: φ24B Ea22(135–261) (bacteriophage φ24B); remark: listed apart in the source
[6] = molecular target: λ Ea22(1–182) (bacteriophage λ)
[7] = molecular target: λ Ea22(109–182) (bacteriophage λ)

## λ Ea22(102–182) (domain or fragment)
[1]
  stoichiometry N: 2

## φP27 Ea22(1–315) (natural protein)
[2]
  stoichiometry N: 4

## λ Ea22(93–182) (domain or fragment)
[3]
  stoichiometry N: 2

## φ24B Ea22(135–261) (domain or fragment)
[4]
  stoichiometry N: 2
[5]
  stoichiometry N: 4

## λ Ea22(1–182) (natural protein)
[6]
  stoichiometry N: 4

## λ Ea22(109–182) (domain or fragment)
[7]
  stoichiometry N: 2
